# Assay results taken from patent publication US20040176285A1, “Tip39 polypeptides” (priority 2001, published 2004).
# “Also recorded” adds a separate entry of the source. Where a SMILES comes first, the peptide text is derived from it. Where no end group is shown, it is not given here.
# T1: PTH1R (Homo sapiens, UniProt Q03431)
# T1 sequence (Q03431 27-593): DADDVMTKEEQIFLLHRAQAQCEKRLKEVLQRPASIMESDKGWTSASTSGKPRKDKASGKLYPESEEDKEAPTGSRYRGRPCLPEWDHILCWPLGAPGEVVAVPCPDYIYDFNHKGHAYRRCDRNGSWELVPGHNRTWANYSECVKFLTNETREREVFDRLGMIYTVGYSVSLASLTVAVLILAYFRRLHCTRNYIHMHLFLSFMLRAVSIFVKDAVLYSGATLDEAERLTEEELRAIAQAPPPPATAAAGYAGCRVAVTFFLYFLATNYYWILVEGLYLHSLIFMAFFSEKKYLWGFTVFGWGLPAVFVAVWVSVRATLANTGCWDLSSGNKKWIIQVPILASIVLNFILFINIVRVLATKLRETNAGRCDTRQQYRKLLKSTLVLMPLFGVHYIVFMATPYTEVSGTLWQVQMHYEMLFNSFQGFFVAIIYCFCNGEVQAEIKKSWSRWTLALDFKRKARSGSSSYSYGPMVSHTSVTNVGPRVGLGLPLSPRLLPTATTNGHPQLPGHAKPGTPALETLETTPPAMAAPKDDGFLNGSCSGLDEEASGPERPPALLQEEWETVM
# T2: endogenous PTH1R (Homo sapiens, UniProt Q03431)
# T2 construct: SaOS-2 cells expressing the wild-type PTH1R endogenously; endogenous in cells; host or cells: SaOS-2 human osteosarcoma cells
# T2 sequence (Q03431 27-593): T1 sequence (Q03431 27-593)
# T3: human PTH/PTHrP receptor (PTH1R) (human, UniProt Q03431 27-593)
# T3 construct: whole, on cells; HKrk-B7 cells about 10^6 receptors/cell; SaOS-2 about 30,000 receptors/cell; also called hPTH-1 receptor; PTH-1 receptor
# T3 sequence (looked up): T1 sequence (Q03431 27-593)
# Experiments:
# PTH1R [1] = target: T1, PTH1R; test: Ligand-stimulated cAMP accumulation in HKrk-B7 cells; type: cell-based; set-up: expressed in transfected cells
# Description: (§1) DMEM, Trypsin/EDTA, and penicillin G/streptomycin and horse serum were from Gibco/BRL, Life Technologies, Gaithersburg, Md. LLC-PK, expressing the recombinant human PTH1R (HKrk-B7 cells) and SaOS-2 cells expressing the wild-type PTH1R endogenously were cultured in DMEM supplemented with 10% heat-inactivated fetal bovine serum, 100 U/ml penicillin, 100 μg/ml streptomycin, as previously described (Gardella, T. J., et al., J. Biol. Chem. 271:19888-19893 (1996); Fukayama, S., et al., Endocrinology 134:1851-1858 (1994)); both cell lines were maintained in a humidified atmosphere containing 95% air and 5% CO2. After seeding, medium was replaced daily, until cells were used for radioligand binding or cAMP accumulation assays.
# (§2) Na^125I (specific activity: 2,000 Ci/mmol) was purchased from DuPont/NEN, Boston, Mass. Fetal bovine serum, 3-isobutyl-1-methyl-xanthine (IBMX), and BSA were from Sigma, St. Louis, Mo., and trifluoroacetic acid (TFA) was from Pierce, Rockford, Ill. Radiolabeled rPTH(1-34) and PTHrP(1-36) were prepared by the chloramine-T method, followed by HPLC purification using a 30-50% ACN/0.1% TFA gradient over 30 minutes; radioreceptor assays were performed in 24-well plates as previously described (Gardella, T. J., et al., J. Biol. Chem. 271:19888-19893 (1996); Fukayama, S. et al., Endocrinology 134:1851-1858 (1994)). In brief, each well (final volume 500 μl) contained binding buffer (BB; 50 mM Tris-HCl (pH 7.7), 100 mM NaCl, 5 mM KCl, 2 mM CaCl2, 5% heat-inactivated horse serum, and 0.5% heat-inactivated fetal bovine serum), the ^125I-labeled PTH or PTHrP analog (100,000 to 200,000 cpm) was incubated in the absence or presence of increasing concentrations of unlabeled peptides. After 4 h at 16° C., buffer was completely removed, the cells were rinsed with cold BB and lysed with 1 M NaOH. The entire lysate was counted for γ-irradiation. Specific binding was determined after subtracting radioactivity bound in the presence of maximal concentrations of unlabeled competing peptide (10^−6 M). Agonist-dependent stimulation of cAMP accumulation by HKrk-B7 and SaOS-2 cells (48-well plates; stimulation at room temperature for 45 minutes) and the subsequent measurement of cAMP by radioimmunoassay was performed as previously described (Gardella, T. J., et al., J. Biol. Chem. 271:19888-19893 (1996); Bergwitz, C., et al., Endocrinology 139:723-732 (1998)). Data were analyzed and graphically illustrated using the graph-pad prism software package.
# The values for EC50 and Vmax (mean±SE) are derived from at least three independent experiments.
# PTH1R [2] = target: T1, PTH1R; test: Radioreceptor binding assay with HKrk-B7 cells; set-up: expressed in transfected cells
# Description: as §1, §2
# The binding properties of these peptides were evaluated in radioreceptor assays with HKrk-B7 cells, which express the PTH IR at high density (approximately […]) (Carter, P. H., et al., Endocrinology 140:4972-4981 (1999)), using either radiolabeled rPTH(1-34) or PTHrP(1-36).
# The calculated IC50 values (mean±SE) are derived from at least three independent experiments.
# endogenous PTH1R = target: T2, endogenous PTH1R; test: Ligand-stimulated cAMP accumulation in SaOS-2 cells; type: cell-based
# Description: as §1
# as §2, with “After 4 h at 16° C., buffer was completely removed, the cells were rinsed with cold BB and lysed with 1 M NaOH.” left out, “Agonist-dependent stimulation of cAMP accumulation by HKrk-B7 and SaOS-2 cells (48-well plates; stimulation at room temperature for 45 minutes) and the subsequent measurement of cAMP by radioimmunoassay was performed as previously described (Gardella, T. J., et al., J. Biol. Chem. 271:19888-19893 (1996); Bergwitz, C., et al., Endocrinology 139:723-732 (1998)).” left out, “package. […]” for “package.”
# [3] = target: T3, human PTH/PTHrP receptor (PTH1R); test: radioreceptor competition on HKrk-B7 cells; tracer 125I-[Tyr36]PTHrP(1-36)amide
# Description: (§3) Na¹²⁵I (specific activity: 2,000 Ci/mmol) was purchased from DuPont/NEN, Boston, Mass. Fetal bovine serum, 3-isobutyl-1-methyl-xanthine (IBMX), and BSA were from Sigma, St. Louis, Mo., and trifluoroacetic acid (TFA) was from Pierce, Rockford, Ill. […] After 4 h at 16° C., buffer was completely removed, the cells were rinsed with cold BB and lysed with 1 M NaOH. The entire lysate was counted for γ-irradiation. Specific binding was determined after subtracting radioactivity bound in the presence of maximal concentrations of unlabeled competing peptide (10⁻⁶ M). Agonist-dependent stimulation of cAMP accumulation by HKrk-B7 and SaOS-2 cells (48-well plates; stimulation at room temperature for 45 minutes) and the subsequent measurement of cAMP by radioimmunoassay was performed as previously described (Gardella, T. J., et al., J. Biol. Chem. 271:19888-19893 (1996); Bergwitz, C., et al., Endocrinology 139:723-732 (1998)). Data were analyzed and graphically illustrated using the graph-pad prism software package.
# [4] = target: T3, human PTH/PTHrP receptor (PTH1R); test: cell-based or functional assay
# [5] = target: T3, human PTH/PTHrP receptor (PTH1R); test: radioreceptor competition on HKrk-B7 cells; tracer 125I-rat [Nle8,21,Tyr34]PTH(1-34)amide
# Description: as §3
# [6] = maximal cAMP accumulation, mean±SE
molecule,measurement,setting,value
CC[C@H](C)[C@H](NC(=O)[C@H](CO)NC(=O)[C@H](CCCCN)NC(=O)CNC(=O)[C@H](CCCCN)NC(=O)[C@H](CC(=O)O)NC(=O)[C@H](Cc1c[nH]cn1)NC(=O)[C@H](CC(C)C)NC(=O)[C@H](CC(C)C)NC(=O)[C@H](CCC(N)=O)NC(=O)[C@H](Cc1c[nH]cn1)NC(=O)[C@H](CCC(=O)O)NC(=O)[C@H](CO)NC(=O)[C@@H](NC(=O)[C@H](C)N)C(C)C)C(=O)N[C@@H](CCC(N)=O)C(=O)N[C@@H](CC(=O)O)C(=O)N[C@@H](CC(C)C)C(=O)N[C@@H](CCCNC(=N)N)C(=O)N[C@@H](CCCNC(=N)N)C(=O)N[C@@H](CCCNC(=N)N)C(=O)N[C@@H](Cc1c[nH]cn1)C(=O)N[C@@H](Cc1c[nH]c2ccccc12)C(=O)N[C@@H](CC(C)C)C(=O)N[C@@H](CC(N)=O)C(=O)N[C@@H](CO)C(=O)N[C@@H](Cc1ccc(O)cc1)C(=O)N[C@@H](CCSC)C(=O)N[C@@H](Cc1c[nH]cn1)C(=O)N[C@@H](CCCCN)C(=O)N[C@@H](CC(C)C)C(=O)N[C@@H](CC(C)C)C(=O)N[C@H](C(=O)N[C@@H](CC(C)C)C(=O)N[C@@H](CC(=O)O)C(=O)N[C@@H](C)C(=O)N1CCC[C@H]1C(N)=O)C(C)C [PTHrP(1-20)/TIP(23-39)] (H-AVSEHQLLHDKGKSIQDLRRRHWLNSYMHKLLVLDAP-NH2),Vmax (efficacy) of cAMP accumulation,PTH1R [1]; HKrk-B7 cells,39±8 pmol/well
same,stimulation of cAMP accumulation at the PTH1R (in words),PTH1R [1]; HKrk-B7 cells,full and potent agonist
same,HKrk-B7 Maxobs,PTH1R [1]; [6],39 ± 8 pmol/48-well
same,binding affinity higher than that of PTHrP(1-36),PTH1R [2],2- to 4 fold
same,binding affinity weaker than that of PTH(1-34),PTH1R [2],3- to 4 fold
same,improvement in apparent binding affinity (IC50) relative to TIP(1-39),PTH1R [2]; either radioligand,8- to 19 fold
same,Vmax (efficacy) of cAMP accumulation,endogenous PTH1R; SaOS-2 cells,31±3 pmol/well
same,SaOS-2 Maxobs,endogenous PTH1R; [6],31 ± 3 pmol/48-well
CSCC[C@H](NC(=O)[C@H](Cc1ccc(O)cc1)NC(=O)[C@H](CO)NC(=O)[C@H](CC(N)=O)NC(=O)[C@H](CC(C)C)NC(=O)[C@H](Cc1c[nH]c2ccccc12)NC(=O)[C@H](Cc1c[nH]cn1)NC(=O)[C@H](CCCNC(=N)N)NC(=O)[C@H](CCCNC(=N)N)NC(=O)[C@H](CCC(=O)O)NC(=O)[C@H](CC(C)C)NC(=O)[C@H](C)NC(=O)[C@H](C)NC(=O)[C@H](CC(C)C)NC(=O)[C@H](CC(C)C)NC(=O)[C@H](CCCNC(=N)N)NC(=O)[C@H](C)NC(=O)[C@H](CCCNC(=N)N)NC(=O)[C@H](CCC(=O)O)NC(=O)[C@H](CCCNC(=N)N)NC(=O)[C@H](Cc1ccccc1)NC(=O)[C@H](C)NC(=O)[C@H](C)NC(=O)[C@H](CC(=O)O)NC(=O)[C@H](CC(=O)O)NC(=O)[C@H](C)NC(=O)[C@H](CC(C)C)NC(=O)[C@H](C)N)C(=O)N[C@@H](Cc1c[nH]cn1)C(=O)N[C@@H](CCCCN)C(=O)N[C@@H](CC(C)C)C(=O)N[C@@H](CC(C)C)C(=O)N[C@H](C(=O)N[C@@H](CC(C)C)C(=O)N[C@@H](CC(=O)O)C(=O)N[C@@H](C)C(=O)N1CCC[C@H]1C(N)=O)C(C)C [TIP(3-39)] (H-ALADDAAFRERARLLAALERRHWLNSYMHKLLVLDAP-NH2),stimulation of cAMP accumulation at the PTH1R (in words),PTH1R [1]; HKrk-B7 cells,lack of second messenger formation; also recorded: failed to stimulate cAMP accumulation
PTHrP(1-6)/TIP(9-39): chimera of human PTHrP residues 1-6 and bovine TIP residues 9-39,stimulation of cAMP accumulation at the PTH1R (in words),PTH1R [1]; HKrk-B7 cells,"None of these peptides, however, stimulated cAMP formation; also recorded: lack of PTH1R activation"
PTHrP(1-20)amide (AVSEHQLLHDKGKSIQDLRR-NH2) [reference compound],inhibition of radioligand binding to the PTH1R (in words),PTH1R [2]; either radioligand,did not inhibit the binding of either radioligand
"TIP(19-39): TIP39 analog truncated at the amino-terminus, residues 19-39, bovine sequence (ALERRHWLNSYMHKLLVLDAP)",stimulation of cAMP accumulation at the PTH1R (in words),PTH1R [1]; HKrk-B7 cells,lack of second messenger formation
same,inhibition of radioligand binding to the PTH1R (in words),PTH1R [2]; either radioligand,did not inhibit the binding of either radioligand; also recorded: no detectable binding
"TIP(23-39): TIP39 analog truncated at the amino-terminus, residues 23-39, bovine sequence (RHWLNSYMHKLLVLDAP)",increase in cAMP accumulation over basal,"PTH1R [1]; HKrk-B7 cells, high molar concentrations",~2 fold over basal
same,inhibition of radioligand binding to the PTH1R (in words),PTH1R [2]; either radioligand,did not inhibit the binding of either radioligand; also recorded: no detectable binding
[Ile^7]TIP(1-39): TIP(1-39) having Asp7 replaced by the corresponding isoleucine of PTH (SLALADIAAFRERARLLAALERRHWLNSYMHKLLVLDAP),stimulation of cAMP accumulation at the PTH1R (in words),PTH1R [1]; HKrk-B7 cells,"None of these peptides, however, stimulated cAMP formation; also recorded: no activation of the PTH1R"
H-AVSEHQLLHDKGKSIQDLRRRHWLNSYMHKLLVLDAP-NH2 (also called PTHrP/TIP chimera) [PTHrP(1-20)/TIP(23-39)],IC50,[3],11 nM
same,"EC50 of cAMP accumulation, HKrk-B7 cells",[4],1.4 nM
same,"EC50 of cAMP accumulation, SaOS-2 cells",[4],0.38 nM
same,IC50,[5],31 nM
SVSEIQLMHNLGKHLNSMERVEWLRKKLQDVHNY (not fully specified (C-terminus)) [[Tyr^34] human PTH(1-34)amide],"EC50 of cAMP accumulation, SaOS-2 cells",[4],0.3 nM
